Molecular target: FLAG-TWEAKR (human)

Substance: M2 anti-FLAG monoclonal antibody cross-linked with goat anti-mouse IgG (tool reagent)
- BrdU incorporation of transfected HUVEC: 6 fold

— US20050208046A1
